B1: BS-PL023C (bispecific antibody, human IgG1, kappa)
heavy: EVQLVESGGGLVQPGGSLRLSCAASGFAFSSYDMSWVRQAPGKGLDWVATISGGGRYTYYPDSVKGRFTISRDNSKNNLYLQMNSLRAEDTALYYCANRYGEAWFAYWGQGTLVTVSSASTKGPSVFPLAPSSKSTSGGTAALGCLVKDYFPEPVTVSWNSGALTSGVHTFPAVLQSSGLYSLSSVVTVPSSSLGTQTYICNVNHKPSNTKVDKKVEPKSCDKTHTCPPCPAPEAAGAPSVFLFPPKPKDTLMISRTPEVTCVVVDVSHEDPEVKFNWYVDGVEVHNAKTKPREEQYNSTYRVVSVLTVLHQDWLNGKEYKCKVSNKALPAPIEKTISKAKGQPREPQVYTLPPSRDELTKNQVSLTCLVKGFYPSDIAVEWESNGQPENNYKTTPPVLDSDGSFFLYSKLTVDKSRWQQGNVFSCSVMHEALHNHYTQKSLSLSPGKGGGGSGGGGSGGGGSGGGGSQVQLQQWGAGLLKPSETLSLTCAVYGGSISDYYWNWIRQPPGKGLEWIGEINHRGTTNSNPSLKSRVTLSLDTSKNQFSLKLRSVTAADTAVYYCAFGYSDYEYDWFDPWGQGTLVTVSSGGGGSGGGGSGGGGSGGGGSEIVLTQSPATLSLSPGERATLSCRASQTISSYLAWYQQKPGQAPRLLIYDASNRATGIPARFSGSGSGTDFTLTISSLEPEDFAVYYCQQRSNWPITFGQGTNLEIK
light: DIQMTQSPSSMSASVGDRVTFTCRASQDINTYLSWFQQKPGKSPKTLIYRANRLVSGVPSRFSGSGSGQDYTLTISSLQPEDMATYYCLQYDEFPLTFGAGTKLELKRTVAAPSVFIFPPSDEQLKSGTASVVCLLNNFYPREAKVQWKVDNALQSGNSQESVTEQDSKDSTYSLSSTLTLSKADYEKHKVYACEVTHQGLSSPVTKSFNRGEC
notes: Morrison form (IgG-scFv): an scFv at the C-terminus of each of the two heavy chains
B2: Bs-PLV02 (bispecific antibody, human IgG4 S228P, kappa, F234A L235A)
heavy: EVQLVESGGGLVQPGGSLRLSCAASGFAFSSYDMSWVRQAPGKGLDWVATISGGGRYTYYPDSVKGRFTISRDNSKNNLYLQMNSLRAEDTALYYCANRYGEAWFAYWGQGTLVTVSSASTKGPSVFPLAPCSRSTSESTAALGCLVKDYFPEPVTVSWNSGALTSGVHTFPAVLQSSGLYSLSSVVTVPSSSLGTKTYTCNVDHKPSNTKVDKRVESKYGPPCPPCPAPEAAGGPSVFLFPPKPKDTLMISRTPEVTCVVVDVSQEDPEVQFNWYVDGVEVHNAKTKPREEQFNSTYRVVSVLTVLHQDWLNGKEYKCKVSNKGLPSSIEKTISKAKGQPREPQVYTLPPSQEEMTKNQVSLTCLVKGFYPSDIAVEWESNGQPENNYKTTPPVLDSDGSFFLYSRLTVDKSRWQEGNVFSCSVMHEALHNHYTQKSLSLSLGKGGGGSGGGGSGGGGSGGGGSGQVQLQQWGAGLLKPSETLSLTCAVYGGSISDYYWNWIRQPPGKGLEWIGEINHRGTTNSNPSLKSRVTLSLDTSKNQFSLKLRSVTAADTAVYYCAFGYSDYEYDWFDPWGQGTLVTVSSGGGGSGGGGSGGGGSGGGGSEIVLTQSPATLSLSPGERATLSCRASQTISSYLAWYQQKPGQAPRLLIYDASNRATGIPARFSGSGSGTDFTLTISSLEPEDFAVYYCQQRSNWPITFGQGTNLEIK
light: B1 light
notes: as for B1
B3: 14C12H1L1(hG1TM) (antibody, human IgG1, kappa, V domains shown)
VH: EVQLVESGGGLVQPGGSLRLSCAASGFAFSSYDMSWVRQAPGKGLDWVATISGGGRYTYYPDSVKGRFTISRDNSKNNLYLQMNSLRAEDTALYYCANRYGEAWFAYWGQGTLVTVSS
VL: DIQMTQSPSSMSASVGDRVTFTCRASQDINTYLSWFQQKPGKSPKTLIYRANRLVSGVPSRFSGSGSGQDYTLTISSLQPEDMATYYCLQYDEFPLTFGAGTKLELKR
notes: Humanized anti-PD-1 IgG1 with L234A, L235A, G237A (EU numbering)

Columns and labels:
human PD-1-mFc = target: T1, human PD-1-mFc (human, UniProt Q15116 25-170, limits assumed); experiment: indirect ELISA, coated human PD-1-mFc
T1 construct: not shown: mouse IgG Fc (mFc)
Experimental: Then the ELISA plate coated with the antigen was washed once with PBST and then blocked with a PBS solution containing 1% BSA as a blocking solution at 37° C. for 2 h. After blocking, the ELISA plate was washed 3 times with PBST. The ELISA plate containing the test antibodies was incubated at 37° C. for 30 min and then washed 3 times with PBST.
(§1) After incubation, the plate was washed 4 times with PBST, TMB (Neogen, 308177) was added for chromogenesis in the dark for 5 min, and then a stop solution was added to terminate the chromogenic reaction. The ELISA plate was put into an ELISA plate reader immediately, and the OD value of each well in the ELISA plate was read at 450 nm. The data were analyzed and processed by SoftMax Pro 6.2.1.

human PD-1-mFc-Biotin = target: T2, human PD-1-mFc-Biotin (human, UniProt Q15116 25-170, limits assumed, biotin label (site not stated)); experiment: competitive ELISA, blocking of PD-1-mFc-Biotin binding to coated human PDL1-mFc
T2 construct: not shown: mouse IgG Fc (mFc)
Experimental: After incubation, the ELISA plate was blocked with a PBS solution containing 1% BSA at 37° C. for 2 h. After blocking, the plate was washed three times and dried. The antibody was serially diluted on a dilution plate in a 3-fold dilution ratio to achieve 7 concentrations with 80 nM as the starting concentration (at a final concentration of 40 nM), and a blank control was set. […] Then the mixture was incubated at room temperature for 10 min. Then the mixture after reaction was added to the coated ELISA plate, and the ELISA plate was incubated at 37° C. for 30 min. After incubation, the plate was washed three times with PBST and dried. An SA-HRP (KPL, 14-30-00) working solution was added, and the plate was incubated at 37° C. for 30 min. After incubation, the plate was washed four times and dried. Then TMB (Neogen, 308177) was added in the dark for chromogenesis for 5 min, and then a stop solution was added to terminate the chromogenic reaction. The ELISA plate was put into an ELISA plate reader immediately, and the OD value of each well in the ELISA plate was read at 450 nm. The data were analyzed and processed by SoftMax Pro 6.2.1.

human LAG3-mFc = target: T3, human LAG3-mFc (human, UniProt P18627 23-450, limits assumed); experiment: indirect ELISA, coated human LAG3-mFc
T3 construct: not shown: mouse IgG Fc (mFc)
T3 sequence (looked up): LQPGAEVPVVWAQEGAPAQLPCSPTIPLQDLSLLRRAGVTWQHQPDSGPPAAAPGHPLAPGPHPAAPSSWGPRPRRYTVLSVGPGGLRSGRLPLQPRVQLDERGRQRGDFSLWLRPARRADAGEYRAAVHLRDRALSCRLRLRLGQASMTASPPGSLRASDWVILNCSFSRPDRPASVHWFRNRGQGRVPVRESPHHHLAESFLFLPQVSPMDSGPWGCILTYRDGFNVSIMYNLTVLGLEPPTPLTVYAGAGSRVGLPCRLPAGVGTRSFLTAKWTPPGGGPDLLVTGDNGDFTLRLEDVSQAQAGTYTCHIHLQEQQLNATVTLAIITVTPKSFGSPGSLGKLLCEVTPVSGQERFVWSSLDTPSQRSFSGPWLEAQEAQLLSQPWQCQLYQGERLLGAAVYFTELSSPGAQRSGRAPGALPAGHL
Experimental: as §1, with “Then the ELISA plate coated with the antigen was washed once with PBST and then blocked with a PBS solution containing 1% BSA as a blocking solution at 37° C. for 2 h. After blocking, the ELISA plate was washed 3 times with PBST. The ELISA plate containing the test antibodies was incubated at 37° C. for 30 min and then washed 3 times with PBST. […] After” for “After”

[1] = target: T4, PD-1 on 293T-PD1 membrane surface (full-length human PD-1 on cells) (human, UniProt Q15116 25-288); experiment: flow cytometry on 293T-PD1 cells
T4 construct: whole, on cells; the Promega PD-1 effector cells are bought; also called CHO-K1-PD1 cells
Experimental: 100 μL of 1% PBSA was then added to each well, and the mixture was centrifuged at 350×g for 5 min, followed by removal of the supernatant. […] The mixture was mixed gently and uniformly, and then incubated on ice for 1 h. 100 μL of 1% PBSA was added to each well, and the mixture was centrifuged at 350×g for 5 min, followed by removal of the supernatant. Then the plate was washed twice with 200 μL of 1% PBSA. […] The mixture was mixed well and then incubated on ice in the dark for 0.5 h. 100 μL of 1% PBSA was added to each well, and the mixture was centrifuged at 350×g for 5 min, followed by removal of the supernatant. Then the plate was washed twice with 200 μL of 1% PBSA. 400 μL of 1% PBSA was added to each well to resuspend the cell pellets, and the mixture was transferred to a flow cytometry tube for FACSCalibur assay.

[2] = target: T4, PD-1 on 293T-PD1 membrane surface …; experiment: competitive flow cytometry on 293T-PD1 cells, competitor PDL-1-mFc 20 nM
Experimental: 1. […] 100 μL of 1% PBSA was then added to each well, and the mixture was centrifuged and washed. […] 100 μL of a 400-fold diluted FITC goat anti-mouse IgG/IgM antibody (BD, Cat. No. 555988) was added, while 100 μL of 1% PBSA was added for a blank sample. The mixture was mixed well, incubated on ice in the dark for 30 min, washed, and centrifuged. The cells were resuspended and then transferred to a sample loading tube for testing on a flow cytometer.

T4 sequence (Q15116 25-288): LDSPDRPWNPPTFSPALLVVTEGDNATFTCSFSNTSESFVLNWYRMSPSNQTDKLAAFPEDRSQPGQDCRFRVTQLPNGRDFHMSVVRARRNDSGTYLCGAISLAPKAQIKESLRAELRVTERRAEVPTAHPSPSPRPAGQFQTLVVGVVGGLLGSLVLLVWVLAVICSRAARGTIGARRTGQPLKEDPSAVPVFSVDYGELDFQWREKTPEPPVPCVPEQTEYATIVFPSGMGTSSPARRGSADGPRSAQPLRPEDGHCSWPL
T2 sequence (Q15116 25-170 limits assumed): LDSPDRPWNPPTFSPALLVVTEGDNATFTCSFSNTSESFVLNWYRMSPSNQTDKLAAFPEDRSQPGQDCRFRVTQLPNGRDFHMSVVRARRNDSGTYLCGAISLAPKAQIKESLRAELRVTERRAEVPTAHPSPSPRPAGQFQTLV
T1 sequence (Q15116 25-170 limits assumed): as above

| Binder | EC50 (human PD-1-mFc) | EC50 (human PD-1-mFc-Biotin) | EC50 (human LAG3-mFc) | EC50 [1] | EC50 [2] |
| --- | --- | --- | --- | --- | --- |
| B1 | 0.046 nM | 2.98 nM | 0.377 nM | – | – |
| B2 | 0.103 nM | 5.04 nM | 0.685 nM | 6.87 nM | – |
| B3 | 0.02 nM | 2.61 nM | – | 5.35 nM | 2.51 nM |

Reference: US20240392040A1 (AKESO HUIKE SHANGHAI, published 2024)
